B1: h2731 (antibody, V domains shown)
VH: EVQLLESGGGLVQPGGSLRLSCAASGFTFSNYGMSWVRQAPGKGLEWVASIRSGSGRTYYSDNVKGRFTISRDNSKNTLYLQMNSLRAEDTAVYYCVRYDHYSGSSDYWGQGTLVTVSS
VL: DVVMTQSPLSLPVTLGEPASISCKSSQSLLDYDGKTYLNWLLQKPGQSPQRLIYRVTNRDTGVPDRFSGSGSGTDFTLKISRVEAEDVGVYYCWQGTHFPRSFGQGTKVEIK
B2: h3818G (antibody, V domains shown)
VH: EVQLLESGGGLVQPGGSLRLSCAASGFTFANYGMSWVRQAPGKGLEWVASVRSGGSRTYYSDNVKGRFTISRDNSKNTLYLQMNSLRAEDTAVYYCVRYDHYSGSSDYWGQGTLVTVSS
VL: DVVMTQSPLSLPVTLGEPASISCKSSQSLMDTDGKTYLNWLLQKPGQSPQRLIYKVSNRESGVPDRFSGSGSGTDFTLKISRVEAEDVGVYYCWQGTHFPRTFGQGTKVEIK
B3: h2926 (antibody, V domains shown)
VH: EVQLLESGGGLVQPGGSLRLSCAASGFTFSNFGMSWVRQAPGKGLEWVASVRSGSGRTYYSDNVKGRFTISRDNSKNTLYLQMNSLRAEDTAVYYCVRYDHYTGTSDYWGQGTLVTVSS
VL: DVVMTQSPLSLPVTPGEPASISCKSSQSLLDYDGKTYLNWLLQKPGQSPQRLIYKVSNRDSGVPDRFSGSGSGTDFTLKISRVEAEDVGVYYCWQGTHFPRTFGQGTKVEIK
B4: h2929 (antibody, V domains shown)
VH: EVQLLESGGGLVQPGGSLRLSCAASGFTFSNFGMSWVRQAPGKGLEWVASVRSGSGRTYYSDNVKGRFTISRDNSKNTLYLQMNSLRAEDTAVYYCVRYDHYTGTSDYWGQGTLVTVSS
VL: DVVMTQSPLSLPVTPGEPASISCRSSQSLVDYDGKTYLNWLLQRPGQSPQRLIYKVSNRDSGVPDRFSGSGSGTDFTLKISRVEAEDVGVYYCWQGSHFPRSYGQGTKVEIK
B5: h2927 (antibody, V domains shown)
VH: EVQLLESGGGLVQPGGSLRLSCAASGFTFSNFGMSWVRQAPGKGLEWVASVRSGSGRTYYSDNVKGRFTISRDNSKNTLYLQMNSLRAEDTAVYYCVRYDHYTGTSDYWGQGTLVTVSS
VL: DVVMTQSPLSLPVTPGEPASISCKSSQSLLDYDGKTYLNWLLQKPGQSPQRLIYKVSNRDSGVPDRFSGSGSGTDFTLKISRVEAEDVGVYYCWQGTHFPRSFGQGTKVEIK
B6: h49k3G (antibody, V domains shown)
VH: EVQLLESGGGLVQPGGSLRLSCAASGFTFSNFGMSWVRQAPGKGLEWVASVRSGGGRTYYSDNVKGRFTISRDNSKNTLYLQMNSLRAEDTAVYYCVRYDHYSGTSDYWGQGTLVTVSS
VL: DVVMTQSPLSLPVTLGEPASISCKSSQSLLDSDGKTYLNWLLQKPGQSPQRLIYKVSNRDSGVPDRFSGSGSGTDFTLKISRVEAEDVGVYYCWQGTHFPRTFGQGTKVEIK
B7: h2826 (antibody, V domains shown)
VH: EVQLLESGGGLVQPGGSLRLSCAASGFTFSNFGMSWVRQAPGKGLEWVASVRSGSGRTYYSDNVKGRFTISRDNSKNTLYLQMNSLRAEDTAVYYCVRYDHYSGTSDYWGQGTLVTVSS
VL: DVVMTQSPLSLPVTPGEPASISCKSSQSLLDYDGKTYLNWLLQKPGQSPQRLIYKVSNRDSGVPDRFSGSGSGTDFTLKISRVEAEDVGVYYCWQGTHFPRTFGQGTKVEIK
B8: h2727 (antibody, V domains shown)
VH: EVQLLESGGGLVQPGGSLRLSCAASGFTFSNYGMSWVRQAPGKGLEWVASIRSGSGRTYYSDNVKGRFTISRDNSKNTLYLQMNSLRAEDTAVYYCVRYDHYSGSSDYWGQGTLVTVSS
VL: DVVMTQSPLSLPVTPGEPASISCKSSQSLLDYDGKTYLNWLLQKPGQSPQRLIYKVSNRDSGVPDRFSGSGSGTDFTLKISRVEAEDVGVYYCWQGTHFPRSFGQGTKVEIK
B9: h4917G (antibody, V domains shown)
VH: EVQLLESGGGLVQPGGSLRLSCAASGFTFSNFGMSWVRQAPGKGLEWVASVRSGGGRTYYSDNVKGRFTISRDNSKNTLYLQMNSLRAEDTAVYYCVRYDHYSGTSDYWGQGTLVTVSS
VL: DVVMTQSPLSLPVTLGEPASISCKSSQSLLDSDGKTYLNWLLQKPGQSPQRLIYKVTNRESGVPDRFSGSGSGTDFTLKISRVEAEDVGVYYCWQGTHFPRSFGQGTKVEIK
B10: h4921G (antibody, V domains shown)
VH: EVQLLESGGGLVQPGGSLRLSCAASGFTFSNFGMSWVRQAPGKGLEWVASVRSGGGRTYYSDNVKGRFTISRDNSKNTLYLQMNSLRAEDTAVYYCVRYDHYSGTSDYWGQGTLVTVSS
VL: DVVMTQSPLSLPVTLGEPASISCKSSQSLLDSDGKTYLNWLLQKPGQSPQRLIYRVTNRDTGVPDRFSGSGSGTDFTLKISRVEAEDVGVYYCWQGTHFPRTFGQGTKVEIK

Sequence of Aβ plaques in APPxPS1 mouse brain (human) (P05067 672-713): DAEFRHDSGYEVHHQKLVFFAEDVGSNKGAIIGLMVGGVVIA

The first experiment concerns the target Aβ plaques in APPxPS1 mouse brain (human) (UniProt P05067). Kind of experiment: in vivo target engagement; APPxPS1 mice dosed 10 mg/kg SC weekly for three weeks; anti-human IgG IHC of cerebral cortex, % stained area.
Take B1: the Plaque Binding (% ROI) was 0.079 % ROI.

The target of a further experiment is Aβ1-42 fibrils (human). Kind of experiment: competition ELISA; plate coated with fibril Aβ42; competitor hBP-biotin; IC50 of test divided by IC50 of hBP.
Sequence of Aβ1-42 fibrils (human) (peptide, as listed by the source): as the sequence (P05067 672-713) above
B2: the IC50 ratio (test:hBP) came to 1.18. The same measure, in the same setting: the same measure for B3: 0.99; for B4: 1.16. As to B5, the IC50 ratio (test:hBP) came to 1.6. B6: the IC50 ratio (test:hBP) was 2.16.

As for B7, the IC50 ratio (test:hBP) came to 1.1.

On to B8, for which the IC50 ratio (test:hBP) was 3.06. As to B9, the IC50 ratio (test:hBP) stood at 2.69. As to B10, the IC50 ratio (test:hBP) is 1.01.

The next experiment addresses Aβ plaques in APPxPS1 mouse brain (human) (UniProt P05067). Kind of experiment: in vivo target engagement; APPxPS1 mice dosed 3 mg/kg SC weekly for three weeks; anti-human IgG IHC of cerebral cortex, % stained area.
The molecule B1 came in with a Plaque Binding (% ROI) of 0.07 % ROI.

The values above are taken from patent US20230331828A1.
